Among the data in the RNAGym collection of RNA variant scans (doi:10.7554/elife.80360) are self-cleavage values, retold here.

The chains are these.
B1: Hairpin Ribozyme (parent)
chain: GUCCUCUUUCACGUGCGCGUGAAAGAGAGAAGUGAACCAGAGAAACACACGUUGUGGUAUAUUACCUGGUA

The variants in the series derive from B1. As to the kind of experiment: self-cleavage, relative activity (ratio to wild type); higher = more cleavage; co-transcriptional.
For the variant GUCUUCUUUCACGUGCGCGUGAAAGAGAGAAGUGAACCAGAGAAACACACGAUGUGGUAUAUUACCUGGUA, the self-cleavage worked out at 0.295. Then GUCUUCUUUCACGUGCGCGUGAAUGAGAGAAGUGAACCAGAGAAACACACGUUGUGGUAUAUUACCUGGUA, with 0.295; and GUCUUCUUUCAGGUGCGCGUGAAAGAGAGAAGUGAACCAGAGAAACACACGUUGUGGUAUAUUACCUGGUA, with 0.259; and GUCUUCUUUCACGUGCGCGUGAAAGAGAGAAGUGAACCAGAGACACACACGUUGUGGUAUAUUACCUGGUA, with 0.102. Consider GUCUUCUUUCACGUGCGCGUGAAAGAGACAAGUGAACCAGAGAAACACACGUUGUGGUAUAUUACCUGGUA, for which the self-cleavage amounted to 0.108. For the variant GUCGUCUUUCACGUGCGCGUGAAAGAGAGAAGUGAACCAGAGAAACACACGUUGUGGUAUAUUACCUGGCA, the self-cleavage came out at 0.214.

With GUCUUCCUUCACGUGCGCGUGAAAGAGAGAAGUGAACCAGAGAAACACACGUUGUGGUAUAUUACCUGGUA, the self-cleavage is 0.193. With GUCUUCUUUUACGUGCGCGUGAAAGAGAGAAGUGAACCAGAGAAACACACGUUGUGGUAUAUUACCUGGUA, the self-cleavage was found to be 0.224. In the case of GUCUUCUUUCACGUGCGCGUGAAAGAGAGAAGUGAACCAGAGAAACACACGUUGUUGUAUAUUACCUGGUA, the self-cleavage was 0.126. For the variant GUCUUCUUUCACGUGCGCGUGAAAGAGAGAAGUGAACCAGAGAAACACACGUUGUCGUAUAUUACCUGGUA, the self-cleavage was found to be 0.214. As for GUCUUCUUUCACGUGCGCGUGAAAGAGAGAAGUGGACCAGAGAAACACACGUUGUGGUAUAUUACCUGGUA, the figure is 0.304; as for GUCUUCUUUCACGUGCGCGUGAAAGAGAGUAGUGAACCAGAGAAACACACGUUGUGGUAUAUUACCUGGUA, 0.13. For GUCUUCUUUCACGUGCGCGUGAUAGAGAGAAGUGAACCAGAGAAACACACGUUGUGGUAUAUUACCUGGUA, the self-cleavage came to 0.315.

GUCUUCUUUCACGUGCGCGUGAGAGAGAGAAGUGAACCAGAGAAACACACGUUGUGGUAUAUUACCUGGUA: the self-cleavage was determined as 0.299. As to GUCUUCUUUCACGUGCGCGUGAAAGAGAGAAGUGAACCAGAGAAACACACGUUUUGGUAUAUUACCUGGUA, the self-cleavage was found to be 0.198. Then GUCUUCUUUCACGUGCGCGUGAAAGAGAGAAGUGAACCAGAGAAACACACGUUGUGGUAUAUUACCUUGUA, with 0.109. Consider GUCGUCUUUCACGUGCGCGUGAAAGAGAGAAGUGAACCAGAGAAACACACGUUGUGGUAUAUGACCUGGUA, for which the self-cleavage was found to be 0.217. GUCGUCUUUCACGUGCGCGUGAAAGAGAGAAGUGAACCAGAGAAACACACGUUGUGGUAUAUAACCUGGUA: the self-cleavage worked out at 0.252. Consider GUCUUCUUUCACGUGCCCGUGAAAGAGAGAAGUGAACCAGAGAAACACACGUUGUGGUAUAUUACCUGGUA, for which the self-cleavage amounted to 0.266. GUCUUCUUUCACGUGCUCGUGAAAGAGAGAAGUGAACCAGAGAAACACACGUUGUGGUAUAUUACCUGGUA: the self-cleavage was found to be 0.313. As for GUCUUCUUUCACGUGCGCGUGAAAGAGAGAAGUGAACCAGAGAAACACACGUUGUGGUAUAUUACUUGGUA, the self-cleavage turned out to be 0.234. As to GUCUUCUUUCACGUGCGCGUGAAAGAGAGAAGUGAACCAGAGAAACACACGUUGUGGUAUAUUACCUGGGA, the self-cleavage was 0.214.

In the case of GUCUUCUUUCACGUGCGCGUGAAAGAGAGAAGUGAACCAGAGAAACACACCUUGUGGUAUAUUACCUGGUA, the self-cleavage was determined as 0.337. Then GUCUUCUUUCACGUGCGCGUGAAAGAGAGAAGUGAGCCAGAGAAACACACGUUGUGGUAUAUUACCUGGUA, with 0.465; and GUCUUCUUUCACGUGCGCGUGAAAGAGAGAAGUGACCCAGAGAAACACACGUUGUGGUAUAUUACCUGGUA, with 0.145; and GUCUUCUUUCACGUGCGCGUGAAAGAGAGAAGUGAUCCAGAGAAACACACGUUGUGGUAUAUUACCUGGUA, with 0.227. Turning to GUCUUCUCUCACGUGCGCGUGAAAGAGAGAAGUGAACCAGAGAAACACACGUUGUGGUAUAUUACCUGGUA, the self-cleavage was found to be 0.241. As for GUCUUCUUUCACGUGCGCGUGAAAGAGAGAAGUGAACCAGAGAAACACACGUUGUGGUAUAUUCCCUGGUA, the self-cleavage came out at 0.181.

For GUCUUCUUUCACGUGCGCGUGAAAGAGAGAAGUGAACCAGAGAAACACACGUUGUGGUAUAUUGCCUGGUA, the self-cleavage came to 0.25. GUCUUCUUUCACGUGCGCGUGAAAGAGAGAAGUGAACCAGAUAAACACACGUUGUGGUAUAUUACCUGGUA: the self-cleavage was 0.129. Turning to GUCUUCUUUCACGUCCGCGUGAAAGAGAGAAGUGAACCAGAGAAACACACGUUGUGGUAUAUUACCUGGUA, the self-cleavage was 0.232. Take GUCUUCUUUCACGUACGCGUGAAAGAGAGAAGUGAACCAGAGAAACACACGUUGUGGUAUAUUACCUGGUA: the self-cleavage was 0.33. Then GUCUUCUUUCACGUUCGCGUGAAAGAGAGAAGUGAACCAGAGAAACACACGUUGUGGUAUAUUACCUGGUA, with 0.32; and GUCUUCUUUCACGUGCGCGUGAAAGAGAGAAGUGAACCAGAGAAACACACGUUGUGGUAUAUUACCUGAUA, with 0.12. On to GUCUUCUUUCACGUGCGCGUGAAAGAGAGAAGUGAACCAGAGAAACACACGUUGUGGUAUAUUACCUGCUA, for which the self-cleavage is 0.204. Consider GUCUUCUUUCACGUGCGCGUGAAAGAGAGAAGUGAACCAGAGAAACACACGUUGCGGUAUAUUACCUGGUA, for which the self-cleavage is 0.093. As to GUCGUCUUUCACGUGCGCGUGAAAGAGAGAAGUGAACCAGAGAAACACACGUUGUGGUAUAUUACCAGGUA, the self-cleavage stood at 0.111.

Regarding GUCUUCUUUCACGUGCGCGUGAAAGAAAGAAGUGAACCAGAGAAACACACGUUGUGGUAUAUUACCUGGUA, the self-cleavage was found to be 0.722.
